Article PMC6305201

Key:
[1] = molecular target: glycophorin A on red blood cells (human (endogenous in red blood cells)) (UniProt P02724)
[2] = molecular target: glycophorin A on red blood cells (human (endogenous in red blood cells)) (UniProt P02724); remark: listed apart in the source

## recombinant soluble region II (RII) of EBA-175 (domain or fragment)
[1]
  mean cluster area of RBCs under flow (1 dyn/cm^2), RII 1, 10 and 100 nM: 1140 µm^2
[2]
  lowest concentration of RII at which RBC clustering was seen (confocal live imaging, picomolar and low nanomolar RII): 0.3 nM
